The target in assay [1] is T1, vascular endothelial growth factor (UniProt P15692-4 27-191, limits assumed, biotin label (Example 5), site not stated).
T1 construct: also called VEGF; VegF
Kind of assay: BioVeris ECL competition with a labeled competitor; legend: +++ = IC50 about 2-10 µM. Here is the method:
(§1) The resulting vectors were used to transform B. subtilis BG6006 host cells. Cultures were grown in 500 ml of MBD medium and the BBI species were purified essentially as described above and by Vogtentanz et al., 2007 (Protein Expr Purif 55:40-52 [2007]). BioVeris binding assays were performed essentially as outlined in Example 5 and by the manufacturer. Binding of the modified variant BBIs to their respective target proteins was measured using a BioVeris® binding assay, which is a competition assay that determines the binding of the modified variant BBIs to its target protein (e.g. VEGF, FGF5, TGFβ and TNFα) in the presence or absence of a labeled competitor. The competitor can be a labeled monoclonal antibody raised against the target protein or a labeled native receptor of the target protein. The electrochemiluminesent binding assays were performed essentially as described in Example 5. The apparent IC50s were determined from binding data by determining the concentration of the BBI species needed to reduce the BioVeris signal by one half. BBI scaffolds without the target binding peptide in the chymotrypsin inhibitory loop were used as negative controls.

Assay [2] has as its target T1, vascular endothelial growth factor. Kind of assay: BioVeris ECL competition; wild-type negative control for VEGF binding.
In assay [3] the target is T2, fibroblast growth factor 5 (UniProt P12034 21-268, limits assumed).
T2 construct: also called FGF-5; FGF5
T2 sequence (looked up): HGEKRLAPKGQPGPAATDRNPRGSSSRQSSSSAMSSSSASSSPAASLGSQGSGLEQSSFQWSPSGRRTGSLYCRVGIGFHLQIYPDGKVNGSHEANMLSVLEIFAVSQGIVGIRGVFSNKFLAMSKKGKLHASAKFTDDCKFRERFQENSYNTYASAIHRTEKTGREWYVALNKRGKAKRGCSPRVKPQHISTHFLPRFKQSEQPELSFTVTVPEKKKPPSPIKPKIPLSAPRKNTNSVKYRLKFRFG
Kind of assay: BioVeris ECL competition; wild-type negative control for FGF-5 binding.

Assay [4] has as its target T3, Transforming growth factor β1 (UniProt P01137 279-390).
T3 construct: also called TGFβ1; TGFβ
Kind of assay: BioVeris ECL competition with a labeled competitor; legend: ++ = IC50 about 10-50 µM. As for the experimental part:
as §1

Assay [5] deals with T2, fibroblast growth factor 5. Described as above. As for the experimental part: as §1
Assay [6] addresses T3, Transforming growth factor β1. Kind of assay: BioVeris ECL competition; negative control for TGFβ binding.
The target of assay [7] is T4, Tumor necrosis factor α (UniProt P01375 77-233).
T4 construct: also called TNFα; TNF
T4 sequence (P01375 77-233 limits assumed): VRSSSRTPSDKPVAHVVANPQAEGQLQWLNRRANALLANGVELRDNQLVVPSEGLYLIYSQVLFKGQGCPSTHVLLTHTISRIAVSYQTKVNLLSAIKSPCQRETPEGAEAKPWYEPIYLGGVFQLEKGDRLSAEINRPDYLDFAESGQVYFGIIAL
Kind of assay: BioVeris ECL competition with a labeled competitor; legend: ++ = IC50 about 10-50 µM. As for the experimental part:
as §1

In assay [8] the target is T4, Tumor necrosis factor α. The experiment in a line: BioVeris ECL competition with a labeled competitor; legend: + = IC50 about 50-250 µM. Here is the method: as §1
Assay [9] deals with T1, vascular endothelial growth factor. Kind of assay: BioVeris ECL competition with a labeled competitor; legend: ++ = IC50 about 10-50 µM. Here is the method: as §1
The target in assay [10] is T4, Tumor necrosis factor α. The experiment in a line: BioVeris ECL competition; negative control for TNFα binding.

Positions count from the first letter of the chain named. In names and notes the source's numbering stands. Where only a bound is given, the exact number is not on record here.

T1 sequence (P15692 other isoform, or with tags, fused parts or gaps limits assumed): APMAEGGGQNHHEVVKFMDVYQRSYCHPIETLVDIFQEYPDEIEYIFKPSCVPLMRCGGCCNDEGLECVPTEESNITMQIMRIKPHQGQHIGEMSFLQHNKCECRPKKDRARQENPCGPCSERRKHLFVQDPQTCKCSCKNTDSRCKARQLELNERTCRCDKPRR
T3 sequence (P01137 279-390 limits assumed): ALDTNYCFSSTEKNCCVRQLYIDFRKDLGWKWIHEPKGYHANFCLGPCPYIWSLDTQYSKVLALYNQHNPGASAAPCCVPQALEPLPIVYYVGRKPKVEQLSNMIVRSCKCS

B1: BBtc-AV (designed binder)
chain: DPSSKWEACCDRCACTKSIPPQCHCADIRLNSCHSACESCACYNLYGWTCRCFDITDFCYKPCSG
notes: also called BBItc-AV
B1: the IC50 in [1] lay within 2 to 10 µM.

B2: BBIt-VEGKD-A13I-S25K-L29P-V52K (designed binder)
chain: DPDDESSKPCCDQCICTKSNPPQCRCKDMRPNSCHSACKSCICKYDLYWWCFCKDITDFCYEPCKPSE
notes: also called VegKD-Q
B2 yielded an IC50 in assay [1] of 2 to 10 µM.

B3: wild-type soybean Bowman-Birk protease inhibitor (other)
chain: DDESSKPCCDQCACTKSNPPQCRCSDMRLNSCHSACKSCICALSYPAQCFCVDITDFCYEPCKPSEDDKEN
notes: Negative control with the native chymotrypsin loop ALSYPAQ; also called sBBI; BBI
As for B3, the IC50 in assay [2] and in [3] was greater than 250 µM each time.

B4: BBIt-AV-A13I-L29P-A40K-F50T-V52A (designed binder)
chain: DPDDESSKPCCDQCICTKSNPPQCRCSDMRPNSCHSACKSCKCYNLYGWTCTCADITDFCYEPCKPSE
notes: also called TA5; quintuple variant
Consider B4, for which the IC50 in [1] is 2 to 10 µM.

B5: WTQ-Q-BBIt-TGFβ1 (designed binder)
chain: B4 chain with K42A, Y44W, N45T, L46Q, Y47H, G48I, W49H, T50N
notes: also called BBIt-WTQ-Q-A13I-L29P-F50T-V52A
Molecule B5 registered a half-inhibitory concentration (IC50) in assay [4] of 10 to 50 µM.

B6: MM007-Q-BBIt-FGF-5 (designed binder)
chain: B4 chain with K42A, Y44R, N45T, L46Q, Y47P, G48Y, W49P, T50L
notes: also called BBIt-MM007-Q-A13I-L29P-F50T-V52A
In assay [5], B6 yielded an IC50 of 10 to 50 µM.

B7: FGFps2-Q-BBIt-FGF-5 (designed binder)
chain: B4 chain with K42A, Y44T, N45W, L46I, Y47D, G48S, W49T, T50P
notes: also called BBIt-FGFps2-Q-A13I-L29P-F50T-V52A
Turning to B7, the IC50 in assay [5] is 10 to 50 µM; in assay [6], greater than 250 µM.

B8: MM021W-Q-BBIt-TGFβ1 (designed binder)
chain: B4 chain with K42A, Y44K, N45H, L46N, Y47V, G48D, T50L
notes: also called MM0212-Q-BBIt-TGF; BBIt-MM021W-Q-A13I-L29P-F50T-V52A
In assay [4], B8 gave an IC50 of 10 to 50 µM.

B9: BBIt-AV-A13I-S25K-M27A-L29R-S31A-A40H-F50R-V52L (designed binder)
chain: B4 chain with S27K, M29A, P31R, S33A, K42H, T52R, A54L
notes: the entry carries an N-terminal DP; also called RL8
The molecule B9 showed an IC50 in assay [1] of 2 to 10 µM.

B10: BBIt-AV-A13I-S25K-M27A-L29R-S31E-A40K-F50Q-V52Q (designed binder)
chain: B4 chain with S27K, M29A, P31R, S33E, T52Q, A54Q
notes: the entry carries an N-terminal DP; also called QQ8
As for B10, the IC50 in assay [1] was 2 to 10 µM.

B11: BBIt-AV-A13I-A40K-F50T-V52A (designed binder)
chain: B4 chain with P31L
notes: the entry as printed carries an N-terminal DP from the linker
In turn, B11 gave an IC50 in assay [1] of 2 to 10 µM.

B12: BBIt-AV-A13I-S25R-M27A-L29P-S31A-A40H-F50K-V52T (designed binder)
chain: B4 chain with S27R, M29A, S33A, K42H, T52K, A54T
notes: the entry carries an N-terminal DP; also called KT8
Molecule B12 came in with an IC50 in assay [1] of 2 to 10 µM.

B13: BBIt-TNFα-T1-A13I-S25R-M27A-L29P-S31A-F50K-V52T (designed binder)
chain: DPDDESSKPCCDQCICTKSNPPQCRCRDARPNACHSACKSCACRYWQDIPCKCTDITDFCYEPCKPSE
notes: also called BBIt-TNF-T1
The molecule B13 registered an IC50 in assay [7] of 10 to 50 µM.

B14: BBIt-TNFα-T2-A13I-S25R-M27A-L29P-S31A-F50K-V52T (designed binder)
chain: B13 chain with R44A, Y45P, W46E, Q47P, D48I, I49L, P50A
notes: also called BBIt-TNF-T2
On to B14, for which, in assay [8], the IC50 fell in the range of 50 to 250 µM.

B15: BBIt-VEGF-V5-A13I-S25R-M27A-L29P-S31A-F50K-V52T (designed binder)
chain: B13 chain with R44K, Y45P, W46S, Q47S, D48A, I49S, P50S
notes: also called BBIt-AV-V5
As for B15, in assay [9], the IC50 is 10 to 50 µM.

B16: BBIt-TNFα-T3-A13I-S25R-M27A-L29P-S31A-F50K-V52T (designed binder)
chain: B13 chain with R44D, Y45M, W46I, Q47M, D48V, I49S, P50I
notes: also called BBIt-TNF-T3
For the molecule B16, the IC50 in assay [8] lay within 50 to 250 µM.

B17: BBIt-VEGF-V3-A13I-S25R-M27A-L29P-S31A-F50K-V52T (designed binder)
chain: B13 chain with Y45P, W46T, Q47G, D48H, I49S, P50L
notes: also called BBIt-AV-V3
Turning to B17, the IC50 in assay [9] is 10 to 50 µM.

B18: BBIt-VEGF-V4-A13I-S25R-M27A-L29P-S31A-F50K-V52T (designed binder)
chain: B13 chain with R44K, Y45H, W46S, Q47A, D48K, I49A, P50E
notes: also called BBIt-AV-V4
B18 registered an IC50 in assay [1] of 2 to 10 µM.

B19: BBIt-VEGF-V1-A13I-S25R-M27A-L29P-S31A-F50K-V52T (designed binder)
chain: B13 chain with R44S, Y45K, W46H, Q47S, D48Q, P50T
notes: also called BBIt-AV-V1
As to B19, the IC50 in assay [9] was 10 to 50 µM; in assay [10], greater than 250 µM.

B20: BBIt-VEGF-V2-A13I-S25R-M27A-L29P-S31A-F50K-V52T (designed binder)
chain: B13 chain with R44K, Y45T, W46N, Q47P, D48S, I49G, P50S
notes: also called BBIt-AV-V2
B20 showed an IC50 in assay [1] of 2 to 10 µM.

B21: BBIt-VEGF-V6-A13I-S25R-M27A-L29P-S31A-F50K-V52T (designed binder)
chain: B13 chain with R44P, Y45V, W46T, Q47K, D48R, I49V, P50H
notes: also called BBIt-AV-V6
In the case of B21, the IC50 in [1] fell in the range of 2 to 10 µM.

B22: BBIt-AV (designed binder)
chain: DDESSKPCCDQCACTKSNPPQCRCSDMRLNSCHSACKSCACYNLYGWTCFCVDITDFCYEPCKPSE
notes: BBI-AV without its 5 C-terminal amino acids; also called truncated BBI-AV; unmodified BBIt-AV
The molecule B22 yielded a half-maximal inhibitory concentration (IC50) in assay [1] of 2 to 10 µM.

B23: BBdb-AV (designed binder)
chain: DPSESSKPCCDQCACTKSIPPQCRCTDVRLNSCHSACSSCACYNLYGWTCVCVDMKDFCYEPCK
notes: also called BBIdb-AV
B23 yielded an IC50 in assay [1] of 2 to 10 µM.

B24: PEN3-Q-BBIt-TGFβ1 (designed binder)
chain: DPDDESSKPCCDQCICTKSNPPQCRCSDMRPNSCHSACKSCACPENINVLPCTCADITDFCYEPCKPSE
notes: also called BBIt-PEN3-Q-A13I-L29P-F50T-V52A
In assay [4], B24 gave an IC50 of 10 to 50 µM.

(Values after patent US20100093028A1 (DANISCO US, published 2010).)
